# Measured values taken from the nanobody polyreactivity screen of Harvey et al. (2022).
# Test: yeast display, Sf9 membrane polyspecificity reagent, FACS + sequencing; frameworks hold sequencing errors
# Method in brief: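 Nanobodies from a synthetic yeast display library (Saccharomyces cerevisiae BJ5465), induced 36–48 hours with galactose, were stained 1 hour at 4 °C with 10% biotinylated, detergent-solubilized Sf9 membrane reagent, enriched on streptavidin microbeads, then FACS-sorted. Anti-HA (expression) and streptavidin (reagent binding) fluorescence set low and high (top ~1%) gates. Polyreactivity labels come from the gate of origin. Genes were colony-PCR amplified, MiSeq 2 × 250 sequenced and filtered by CDR length.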
row,Sequence,polyreactivity (PSR sort gate)
1,QVQQQESGGGLVQAGGSLRQSYAASGYIFPSLAMGWYRQAPGKEREFVAAIGRGSTNNYADSVKGRFTISRDNAKNTAYQQMNSLKPEDTAVYYCAAAASPLTRHLYWGQGTQVTVSS,low polyreactivity
2,QVQLVESGGGLVQAGGSLRLSCAASGRTFLYNAMGWYRQAPGKERELVAAIRWSGGTTYYADSVKGRFTISRDNAKNTVYLQMNSLKPEDTAVYYCAARWGPYYGGVRYGYWGQGTQVTVSS,high polyreactivity
3,QVQLVESGGGLVQAGGSLRLSCAASGSTFAKNAMGWYRQAPGKERELVAAITASGGSTYYADSVKGRFTISRDNAKNTVSLQMNSLKPEDTAVYYCAKSSYLTRGSRYDYWGQGTQVTVSS,low polyreactivity
4,QVQLVESGGGIVQAGGSLRLSCAASGFIFVLYAMGWYRQAPGKERELVASISSTGSTYYADSVKGRFTISRENAKNTVYLQMNSLIPEDTAVYYCNLFVFDPEDFWGEGTQVTVSS,low polyreactivity
5,QVQLVESGGRLHQAGGSLRLICAASGSIIATYAMGWYRPAHGKERELVAAITSSDGSTNYADSVKGRFTISRDNAKNTVYLQMNCLTPEDTAVYYCAKDVWRHYLNLYDYWGQGTQVTVSS,low polyreactivity
6,QVQLVESGGGLVQAGGSLRLSCAASGRTFRRNAMGWYRQAPGKERELVATITGGGRTNYADSVKGRFTISRDNAKNTVYLQMNSLKPEDTAVYYCAAAAGSYNTGYGYWGQGTQVTVSS,high polyreactivity
7,QVQLEESGGGLYQAGGSLRLSCAASGSILDFNAMVWYRQAPGKEMELVASIRWSGGSTYYADSVKGRFTISRDYAKNTVYFQMNSLKPEDTAVYYCAAVTYGYYRSRYSSIQPNEYDYLGQGTQVTVSS,high polyreactivity
8,QVQLVESGGGLVQAGGSLRLSCAASGSTLRGYTMGWYRPAPGKERELVAAISWSGASTYYADSVKGRFTISRDSAKNTVYLQMNSLKPEVTAVYYCAVRYWAPYDEYGYWGQGTQVTVSS,high polyreactivity
9,QVQLVESGGGLVQAGGSLRLSCAASGSIFVYYGMGWYRQAPGKERELVAAISSGGSTHYADSVKGRFTISRDNAKNTVYFQMNSLKPEDTAVYYCAADRFFWLRSYPRYYYWGQGTQVTVSS,low polyreactivity
10,QVQLVESGGGLVQAGGSLRLSCAASGLTFKENVMGWYRQAPGKERELVAAISTGASTYYADSVKGRCTISRDNAKNTVYLQMNSLKPEDTAVYYGAKRVTRWYGYWGQGTQVTVSS,high polyreactivity
11,QVQLVESGGGLVQAGGSLRLSCAASGRTFSHYAMGWYRQAPGKERELVAAITWSGGRTYYADSVKGRFTISRDNAKNTVYLQMNSLKPEDTAVYYCAAGKYWPGNYWGQGTQVTVSS,high polyreactivity
12,QVQLVESVGGLVQAGGILRLSSAASGSTFDINEKGWYRQAPGKERELVAAITWSGDSTYYADSVKGRFTISRDNAKNTVYLQMNSLKPVDTAVYYCSAYYPYSYYEDASYYYWGQGTQVTLSS,low polyreactivity
13,QVQHVESGGGLVQAGGSLRLSCSASGSTFGLYAMGWSRQAPGKETELVAVISWRGGSTYYADSVKGRFTISRDNAKNTVYLQMNSLKPEDTAVYYCAAYSRYPYVRYDYWGQGTQVTVSS,low polyreactivity
14,QVQLVESGGGLVQAGGSLRLSCAASGFTFYLYAMGWYRQAPGKERELVAAITGRGTRTYYADSVKGRFTISRDNAKNTVYLQMNSLKPEDTAVYYCATGGANVDGDAYDYWGQGTQVTVSS,high polyreactivity
15,QVQLVESGGGLVQAGGSLRISCAASGYIFGTYAMGWYRQAPGKERELVAAISSTGRTYYADSVKGRFTISLDNAMNNVYLQMNRLKPEYTAVYYCAADVRTPSEGYDYWGQGTQVTVSS,high polyreactivity
16,QVQLVESGGGLVQAGGSLRLSCAASGFIFGNYAMGWYRQAPGKERELVATITRRGGRTYYADSVKGRFTISRDIAKNTVYLQMTSLKPEDTAVYYCNARPSRWAREGYWGQGTQVTVSS,high polyreactivity
17,QVQLVESGGGLVQAGGSLRLSCADSGRTFVTTAMGWYRQAPGKERELVAAIDGGGDRTYYADTVKVRFTISRDYAKYTVYLQMNSLKPEDSAVYYCNKDRGTLYGDMDSWGQGTQVTVSS,low polyreactivity
18,QVQLVESGGGLVQAGGSLRLSCAASGYIFRYYAMGRYRQAPGKERELVAAITARAGRTYYADSVKGRFTISRDNAKNTVYLQMTSLKPEDTAVYYCAAVRTKVWRGPEMDYWGQGTQVNVSS,high polyreactivity
19,QVQHVESGGGLVQAGGSLRLSCAASGFTFRHNAMGWYRQAPGKERELVAAMTKSGRRTYDADSVKGRFTISRDNAKNTVYLQMNSLKPEDTAVYYCKKDLRQSYANVDYWGQGTQVTVSS,high polyreactivity
20,QVQLVESGGGLVQAGGSLRLSCAASGRIFGLYVLGGYRQAPGKERELVAAIDDSGGDTYDADSVKGRFTISRDNAKNTVYIQMNSLKPEDTAVYYCPADYWGYYYGGYYYLRDYWGQGTQVTVSS,high polyreactivity
21,QVQLVESGGGLVQAGGSLRLSCAASGLTFYVNARGWYRQAPGKERELVATISGSGSTNYADSVKGRFTISRDNAKNTVYLQMNSLKPEDTAVYDCNAGWAQDPSNYWGQGTQVTVSS,high polyreactivity
22,QVQLVESAGVLVQAGGILRLSFAASGINFPYYAMGWYRKAPGKERELVAAISSSGGSSYYADSVKGRFTISRDNAKNTVYLKLNILKPEDTAVYYCAAHRYINYEYWGQGTQLTVSS,high polyreactivity

row,Sequence,polyreactivity (PSR sort gate)
1,QVQLVESGGGLVQAGGSLRLSCAASGSIFFFYVMGWYRPAPGKERELVAAITYSGGSTFYADSVKGRFTISRDNAKNTVYLQMNSLKPEDTAVYYCAADYGQWTPLDPYNHWGQGTQVTVSS,low polyreactivity
2,QVQLVESGGGLVQAGGSLRLSCAASGRIFRYNAMGWYRPAPGKERELVAAIRFSGGSTYYADSVKGRFTISRDHAKNTVYLQMNSLKPEDTAVYDCAKVYFRVQSGMDYWGQGTQVTVSS,low polyreactivity
3,QVQLVESGGGLVQAGGSLRLSCAASGSTFSHNAMGWYRQAPGKERELVAAISWSGVGTYADSVKGRFTISRDNAKNTVYLQMNSLKPEDTAVYYCNKVSYPSTSSSWFDYWGQGTQVTVSS,low polyreactivity
4,QVQLVESGGGLVQAGGSLRLSCAASGSIFSYNTMGWYRQAPGKERELVASISSSGGTTYYADSVKGRFTISRDNAKNTVYLQMNSLKPEDTAVYYCAAKLRSYYSGPRYYYWGQGTQVTVSS,high polyreactivity
5,QVQLVESGGGLVQAGGSHRLSCAASGRTFYRYVMGWYRQAPGKERELVAAIRSSGTSTYYADSVKGRFTISRDNAKNTVYLQINSLKPEDTAVNYCARDSYRGYVYSLDYWGQGNQVTVSS,high polyreactivity
6,QVQLVESGGGLVQAGGSLRISCAASGSIFDSKAMGWYRQAPGKERELVASFTSSGGSTYYADSVKGRFTISRDNAKNTVYLPRNSRKPEDTAVYYCAADSYKTIQDAYDYWGQGTQVTVSS,high polyreactivity
7,QVQLVESGGGLVQAGGSLRLSCAASGSTFYAYAMGWYRQAPGKERELVAVITSSGSTYYADSVKGRFTISRDNAKNTVYLQMNSLKPEDTAVYYCAAKRLSQSRRTQFRTRYPPMYYWGQGTQVTVSS,high polyreactivity
8,QVQLVESGRGLVQAGGSLRLSCAASGSILVFYAMGWYRQAPGKERELVATITGSVGRTSYADSVKGRFTISRDNAKNTVYLQMNSLKPEDSAVYYCAADADTDVFYILQEYDYWGQGTQVTVSS,low polyreactivity
9,QVQLVESGGGLVQAGGSLRLICAASGYTFAFYAMGWYRQAPGKEREFVASINWNGSSTYADSVKGRFTISRDNAKNTVYLQMNSLKPEDTAVYYCNADYNRNSVQFSLYDYWGQGTQVTVSS,low polyreactivity
10,QVQLVESGGGLVQAGGSLRLSCAASGRTFHIYAMGWYRQAPGKERELVAAIRGRSGSTYYADSVKGRFTISRDNAKNTVYLQMNSLKPEDTAVYYCAVGRYPYGSARYRFDYWGQGTQVTVSS,high polyreactivity
11,QVQLVESGGGLVQAGGSLRLSCAASGRIFKYYAMGWYRQAPGKERELVAAISRSGGRTYYADSVKGRFTISRDNAKNTVYLQMNSLKPEDTAVYYCNARVYSGHNYWGQGTQVTVSS,high polyreactivity
12,QGQLVESGGGLVQAGGSLRLSCAASGFTFTSNAMGWYRQAPGQERELVAVISTRGGSTFYADSGKGRFTISRDNAKNTVYLQMNSLKPEDTAVYYCAADSTDYRWTAYYWGQGTQVTVSS,high polyreactivity
13,QVQLLESGGGLVQAGGSLRLRCAASGSIFISYAMGWYRQAPGKERELVAAISIRGTRTYYADSVKGRFTISRDNAKNTVYLHMNCLKPEDTAVYYCAADASYTEGMDYWGQGTQGTVSS,high polyreactivity
14,QVQLVESGGGLVQAGGSLRLSCAASGFIFDNYAMGWYRQAPGKERELVAAISRSGGSTYYADSVKGRFTISRDNAKNTVYLQMNSLKPEDTAVYYCATSGPRGWSLHDYWGQGTQVTVSS,high polyreactivity
15,QVQLVESGGGLVEAGGSLRLSCAASGYIFKSYVMGWYRQAPGTERELVAAITWSGGSTYYADSVNGRFTISRDNAKNTVYLQMNSLNPEDTAVYYCAAYPRRYRTTYDYWGQGTQVTVSS,high polyreactivity
16,QVQLVESGGGLVQAGGSLRLSCAASGIIFAYYAMGWYRQAPGKETELVAAINRSGGTTYYADSVKGRFTISRDNAKNTVYLQMNSLKPEDTAVYYCNALTTWRYRYDYWGQGTQVTVSS,high polyreactivity
17,QVQLVESGGGLVQAGGSLRLTCAASGSNFVYNAMGWYRQAPGKERELVAAISSRGGSTYYADSVKGRFTISRDNAKNTVYLQMKSLKPEDTAVYYCNAYGPRAYRGGSWGQGTQVTVSS,high polyreactivity
18,QVQLVESGGGVVQAGGTLRLSCAASGRIFSYYDMGWYRQAPGKERELVAAITWGGGATYYADSVKGRFTISRDNAKNTVYLLMNSLKPEDTAVYYCAADWSPSIWEYDYWGQGTQVTVSS,low polyreactivity
19,QVQLEESGGGLVQAGGSLRLSCAASGSIFRRNVMGWYRQAPGKERELVAAISWSGDRTYYADSVKGRFTISRDNAKNTVYLQMNSLKPVGTAVYYCAAANASPRRYGQYDYWGQGTQVTVSS,high polyreactivity
20,QVQLEESGRGLVQAGGSLRLSCAASGSTLNYNTMGWYRQAPGKVRELVATISSRGGRTDYADSVKGRFTFSRDNAKNNVYLQMNSLIPEYTAVYSCNALPRVVYTVGQSTFYYWGQGTQVTVSS,high polyreactivity
21,QVQLVESGGGLVQAGGSLRLSCAASGSTLSFNAMGWYRQAPGKERELVAGITYSGASTYYADSVKGRFTISRDNAKNTVYLQMNSLKPEDTAVYYCAADSPYQIYYYWGQGTQVTVSS,low polyreactivity
